In assay [1] the target is T1, biotinylated recombinant TPBG protein (Homo sapiens (Human), UniProt Q13641 32-355, Biotinylated; the number and positions of the biotin labels are not stated and the letters do not carry them.).
T1 sequence: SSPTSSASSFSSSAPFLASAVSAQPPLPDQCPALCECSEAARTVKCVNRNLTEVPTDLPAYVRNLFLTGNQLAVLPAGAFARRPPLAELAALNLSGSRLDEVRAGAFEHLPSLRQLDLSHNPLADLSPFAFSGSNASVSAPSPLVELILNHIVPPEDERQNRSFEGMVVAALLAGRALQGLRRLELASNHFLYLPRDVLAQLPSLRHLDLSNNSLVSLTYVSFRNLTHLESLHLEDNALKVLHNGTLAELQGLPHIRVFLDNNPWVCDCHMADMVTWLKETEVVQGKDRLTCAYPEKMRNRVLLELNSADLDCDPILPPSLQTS
Briefly: competitive ELISA; row antibody 5 ug/mL; competitor: coated 39A11G5F2. On the procedure: (§1) The purified antibodies to be tested were diluted to 1 μg/mL using PBS, and coated with high-adsorption of 96-well microplates at […]. After overnight coating at 4[…], 250 μL of blocking buffer (PBS containing 0.01% (v/v) Tween20 and 1% (w/w) BSA) was added to block coating at room temperature for 1 h, and 0.05 μg/mL of biotinylated recombinant TPBG protein was added to each well. Meanwhile, 5 μg/mL final concentration of competitive antibodies, i.e. the purified antibodies obtained from Embodiment 2 with the clone number of 12B12C7C3, 5G4H10G5, 37H9C5G2, 39A11G5F2, 52C9E9F6, 28D4E6A9, 36A10D8B12, 99E12C7H1, 103E2E9C2 and 106D5G3D10 were added and incubated at 25-37° C. for 1-2 h. The plates were washed three times with plate-washing buffer (PBS containing 0.01% (v/v) Tween20) and HRP (horseradish peroxidase)-labeled streptavidin (purchased from Sigma) was added. After incubating at 37° C. for 0.5 h, the plates were washed three times with plate-washing buffer (PBS containing 0.01% (v/v) Tween20), and 100 μL of TMB substrate was added to each well and the plates were further incubated at room temperature for 30 min prior to adding 100 μL of stop buffer (1.0N HCl) to each well. A₄₅₀ₙₘ values were read using an ELISA microplate reader (SpectraMax 384plus purchased from Molecular Device) and results were shown in FIG. 6. The higher the values of the competition rate, the closer the antigen surface of the two antibodies are.
A general note: An ELISA detects its analyte on a solid surface through an enzyme-linked reagent.

Assay [2] deals with T1, biotinylated recombinant TPBG protein. The experiment in a line: competitive ELISA; row antibody 5 ug/mL; competitor: coated 103E2E9C2. On the procedure:
as §1

Assay [3] deals with T2, human TPBG-hFc (human, UniProt Q13641 32-355).
T2 construct: also called immunogen A; hFc tagged TPBG protein; not shown: The human IgG Fc fragment of the pCpC vector (Invitrogen V044-50) and any linker to it
T2 sequence: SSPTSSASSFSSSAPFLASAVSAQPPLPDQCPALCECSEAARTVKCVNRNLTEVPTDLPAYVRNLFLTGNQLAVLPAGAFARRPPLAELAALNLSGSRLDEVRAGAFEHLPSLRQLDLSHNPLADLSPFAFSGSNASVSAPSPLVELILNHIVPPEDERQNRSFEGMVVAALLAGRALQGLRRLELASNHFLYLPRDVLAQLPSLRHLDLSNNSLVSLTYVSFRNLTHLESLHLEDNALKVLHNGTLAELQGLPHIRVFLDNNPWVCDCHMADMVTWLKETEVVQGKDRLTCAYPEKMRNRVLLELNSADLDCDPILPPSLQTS
The experiment in a line: ELISA, coated human TPBG-hFc 1.0 ug/mL; antibody 2 nM. Here is the method: (§2) The purified immunogen A (as for its method of preparation please refer to step 1 in Example 1) diluting with PBS to a final concentration of 1.0 μg/mL was aliquoted into a 96-well ELISA plate at 100 μL per well, and sealed with a parafilm and incubated at 4° C. overnight. The plate was washed twice with plate washing buffer (PBS containing 0.01% (v/v) Tween 20), and blocked with blocking buffer (PBS containing 0.01% (v/v) Tween 20 and 1% (w/w) BSA) at room temperature for 2 h. The blocking buffer was discarded, and 100 μL per well of the purified antibody obtained from Embodiment 2 was added. After incubating at 37° C. for 2 h, the plate was washed for three times with plate washing buffer (PBS containing 0.01% (v/v) Tween 20). HRP (horseradish peroxidase)-labeled secondary antibody (purchased from Sigma) was added and incubated at 37° C. for 2 h, and the plate was washed for three times using plate washing buffer (PBS containing 0.01% (v/v) Tween 20). 100 μL of TMB substrate was aliquoted into each well, incubated at room temperature for 30 min, and 100 μL of stop buffer (1.0N HCl) per well was subsequently added. A₄₅₀ₙₘ values were read using the ELISA plate reader (SpectraMax 384plus purchased from Molecular Device), and the results were shown in FIG. 6 and table 6. […] In Table 6 the IgG control herein is a mice IgG control, the data in the Table are OD₄₅₀ₘₙ values, and Blank means the OD₄₅₀ₘₙ value when there is only PBS buffer in the plate.

The target in assay [4] is T2, human TPBG-hFc. The experiment in a line: ELISA, coated human TPBG-hFc 1.0 ug/mL; antibody 200 nM. On the procedure: as §2
Assay [5] addresses T2, human TPBG-hFc. The experiment in a line: ELISA, coated human TPBG-hFc 1.0 ug/mL; antibody 0.002 nM. Here is the method:
as §2

The target in assay [6] is T1, biotinylated recombinant TPBG protein. Briefly: competitive ELISA; row antibody 5 ug/mL; competitor: coated 5G4H10G5. Here is the method:
as §1

Our source for the competition rate and OD450nm values is patent US20210198377A1 (XDCEXPLORER SHANGHAI, published 2021).

B1: 99E12C7H1 (antibody, V domains shown)
VH: QIQLVQSGPELKKPGETVKISCKPSGYTFTAYGLSWVKQAPGQGFQWMGWINTYSGVPTYTDDFKGRFAFSLETSAGTASLQITNLKNEDTATYFCARSSIPPFEYWGPGTTLTVSS
VL: SFVMTQSPKFLLVSVGDRVTITCKASQSVSNDVAWYQQKPGQPPRVLIYFASNRYTGVPDRFTGSGYGTDFTFTISTVQAEDLALYFCQQDYSSPWTFGGGTKLEIK
notes: Mouse hybridoma antibody purified from culture supernatant; also called TPBG antibody; lead antibody
B1: the values for the competition rate in assay [1], in assay [2] and in assay [6] were 1%, 1% and 95%, respectively. The OD450nm stood at 2.93 OD450nm in the assay with human TPBG-hFc [3], 2.93 OD450nm with human TPBG-hFc [4] and 0.21 OD450nm with human TPBG-hFc [5].

B2: 37H9C5G2 (antibody, V domains shown)
VH: QVQLQQSDAELVRPGASVKMSCKVSGYTFTDHTIHWMKQRPEQGLEWIGYIYPRDGSGTYNEKFKGKATLTADKSSSTAYMQLNSLTSEDSAVYFCARDGSSHYWYFDVWGTGTTVTVSS
VL: DIQMTQSPASLSASVGETVTITCRASEIIYNYLAWYQQKQGKSPQLLVYNAKTLAEGVPSRFSGSYSGTQFSLNINSLQSEDFGIYYCQHHHDTPLTFGAGTKLDLK
notes: as for B1
As for B2, the competition rate is 3% in assay [1], 38% in assay [2] and 12% in assay [6]. The OD450nm turned out to be 2.52 OD450nm in the assay with human TPBG-hFc [3], 2.61 OD450nm with human TPBG-hFc [4] and 0.11 OD450nm in the assay with human TPBG-hFc [5].

B3: 28D4E6A9 (antibody, V domains shown)
VH: DVQLVESGGGLVRPGGSLKLSCAASGFTFSNYVMSWARQSPEKRLEWVAEISTGGSHTYYSDTVTGRFTISRDNAKKALYLEMSSLRSEDTAIYYCIMFYYGSSYSMDYWGQGTSVTVSS
VL: DIQMTQSTSSLSASLGDRITISCRASQDIRNYLNWYQQKPDGTVKLLIYHTSRLHSGVPSRFSGSGSGTDYSLTISNLEQEDIATYFCQQGDTLPLTFGAGTRLELK
notes: as for B1
Consider B3, for which the competition rate in assay [1] was 0%; in assay [2], 88%; in assay [6], 11%. Moreover, the OD450nm was found to be 2.64 OD450nm with human TPBG-hFc [3], 2.6 OD450nm with human TPBG-hFc [4] and 0.14 OD450nm in the assay with human TPBG-hFc [5].

B4: 103E2E9C2 (antibody, V domains shown)
VH: EVQLQQSGPVLVKPGASVKMSCEASGYSFIDYYMSWVKQSRGRSLEWIGVFNPYSGEIIYNQKFKGKATLTVDKSSSTAYMELSSLTSEDSGVYSCARLRISYYAIDYWGQGTSVAVSS
VL: ENVLTQSPAIMSASPGEKVTMTCRATSSVSSGHFHWYQQKSGASPKVWIYSTSNLASGVPARFSGSGSGTSFSLTISSVEAEDVATYFCQQYSGYPLTFGGGTKLEIK
notes: as for B1
B4: the values for the competition rate in assay [1], in assay [2] and in assay [6] were 0%, 88% and 7%, respectively. Also, the OD450nm turned out to be 2.64 OD450nm with human TPBG-hFc [3], 2.6 OD450nm in the assay with human TPBG-hFc [4] and 0.14 OD450nm with human TPBG-hFc [5].

B5: 106D5G3D10 (antibody, V domains shown)
VH: EVQLVESGGGLVKPGGSLKLSCAASGFTFSDYGMHWVRQAPEKGLEWVGYISSGTYVVYYADTVKGRFTISRDNAKNTLFLQMTSLRSEDTAIYYCSTYGSNPFDYWGQGTTLTVSS
VL: QLVLTQSPAIMSASPGEKVTITCSATSSVSSMHWFQQKPVTSPKLWIYSTSNLASGVPTRFSGSGSGTSYSLTISRMEAEDAATYYCQQRSGYPPIFTFGSGTKLEIK
notes: as for B1
Turning to B5, the competition rate in assay [1] is 1%; in assay [2], 0%; in assay [6], 40%. Also, the OD450nm with human TPBG-hFc [3] was 2.81 OD450nm; with human TPBG-hFc [4] it was 2.88 OD450nm; with human TPBG-hFc [5], 0.16 OD450nm.

B6: 39A11G5F2 (antibody, V domains shown)
VH: QVQLQQSGAELMKPGASMRLSCKATGYTFTGYWLEWIKRRPGHGLEWIGEILPGRGSTNYNEKFKGKATFTAETSSNTAYMQLTSLTTEDSAIYYCARGGRDFDNWGQGTTLTVSS
VL: DIQMTQSTSSLSASLGDRVTISCSASQGINNHLNWYQQKPDGTVKLLIYYTSSLHSGVPSRFSGSGSGTDYSLTISNLEPEDIAIYYCQQFSKLPYTFGGGTKVEMK
notes: as for B1
As for B6, the competition rate in assay [1] came to 96%; in assay [2], 0%; in assay [6] it was 19%. In addition, the OD450nm with human TPBG-hFc [3] was determined as 2.43 OD450nm; with human TPBG-hFc [4], 2.55 OD450nm; with human TPBG-hFc [5], 0.11 OD450nm.

B7: 52C9E9F6 (antibody, V domains shown)
VH: QVQLQQSGAELMKPGASVKLSCKATGYTFTGYWIEWIKQRPGHGLEWIGEILPGRGSTDYNEKFKGKATFTADTSSNTAYMQLSSLTTEDSAIYYCTRGRLDFTYWGQGTLVTVSA
VL: DIQMTQTTSSLSASLGDRVTISCSASQGIRNYLNWYQQKPDGTVKLLIYYTSSLHSGVPSRFSGSGSGTDYSLTISNLEPEDIATYYCQQYSKVPWTFGGGTKLEIK
notes: as for B1
Consider B7, for which the figures for the competition rate in assay [1], in assay [2] and in assay [6] were 97%, 0% and 32%, respectively. For the same molecule, the OD450nm with human TPBG-hFc [3] came out at 2.68 OD450nm; with human TPBG-hFc [4], 2.65 OD450nm; with human TPBG-hFc [5], 0.12 OD450nm.

B8: 5G4H10G5 (antibody, V domains shown)
VH: EVQLVESGGDLVQPGGSLKLFCAASGFTFSTYGLSWVRQTPDKRLELVATITNNDGSAYYPDSVKGRFTISRDKAKNTLFLQMTSLKSEDTAMYYCARETGFGSSYLFDYWGQGTLVTVSA
VL: NIVMTQTPKFLLVSAGDRVTITCKASQSVSNDVAWYQQKPGQSPKLLIYFATNRYTGVPNRFTGSGYGTEFTFTISSVQAEDLAVYFCQQDYSSPTFGGGTKLEIK
notes: as for B1
As for B8, the values for the competition rate in assay [1], in assay [2] and in assay [6] were 10%, 2% and 97%, respectively. Moreover, the results for the OD450nm with human TPBG-hFc [3], with human TPBG-hFc [4] and in the assay with human TPBG-hFc [5] were 2.68 OD450nm, 2.72 OD450nm and 0.1 OD450nm, respectively.

B9: 36A10D8B12 (antibody, V domains shown)
VH: DVQLQESGPGMVKPSQSLSLTCTVTGYSITSGYDWHWIRHFPGNKLEWMGYISYSGNTNYNPSLKSRISITHNTSKNHFFLRLNSVTTEDTATYYCARGYGNWDAMDYWGQGTSVTVSS
VL: DIVMTQSQKFMSTSVGDRVSVTCKASQIVDTNVAWYQQKPGQSPKALISSASYRYSGVPDRFTGSGSGTDFTLTISNVQSEDLAEYFCQQYNSYPLTFGAGTKLELT
notes: as for B1
As to B9, the figures for the competition rate in assay [1], in assay [2] and in assay [6] were 4%, 40% and 17%, respectively. The OD450nm with human TPBG-hFc [3] was 3.06 OD450nm; with human TPBG-hFc [4], 2.51 OD450nm; with human TPBG-hFc [5], 0.18 OD450nm.
